Experimental data published in patent publication US20110184152A1.

B1: FabB-648dsFv (2xG4S) (bispecific antibody, part only; not given: anti-OX40 Fab and linkers, V domains shown, not shown: another chain or arm of the molecule; a dimerising Fc or GST; small tags and cut ends)
VH: EVQLVESGGGLVQPGGSLRLSCAVSGFSLSRYAMTWVRQAPGKCLEWIGTITTGGNTNYANWAKGRFTISKDSTTVYLQMNSLRAEDTAVYYCARGGYVSYADATELSLWGQGTLVTVSS
VL: DIVMTQSPSTLSASVGDRVTITCQASQSIGSRLAWYQQKPGKAPKLLIYYASTVASGVPSRFKGSGSGTEFTLTISSLQPDDFATYYCQSYDYSSSSSYAFGCGTKVEIK
modifications: Engineered interchain disulphide between VH Cys44 and VL Cys100 (Kabat; linear position 103 of the VL).
B2: FabB-645dsFv (S3×G4S), Fv heavy mutation T100aA (bispecific antibody, part only; not given: anti-OX40 Fab and linkers, V domains shown, not shown: another chain or arm of the molecule; small tags and cut ends)
VH: EVQLLESGGGLVQPGGSLRLSCAVSGIDLSNYAINWVRQAPGKCLEWIGIIWASGTTFYATWAKGRFTISRDSTTVYLQMNSLRAEDTAVYYCARTVPGYSAAPYFDLWGQGTLVTVSS
VL: DIVMTQSPSSVSASVGDRVTITCQSSPSVWSNFLSWYQQKPGKAPKLLIYEASKLTSGVPSRFKGSGSGTDFTLTISSLQPEDFATYYCGGGYSSISDTTFGCGTKVEIK
modifications: Interchain disulfide between VH Cys44 and VL Cys100 (Kabat) of the dsFv

Legend:
[1] = molecular target: mouse serum albumin (mouse) (UniProt P07724); assay: SPR (Biacore), purified construct
[2] = molecular target: human serum albumin (human) (UniProt P02768); assay: SPR (BIAcore)

Binder | Kd [1] [nM] | Kd [2] [nM] | koff [2] [s⁻¹] | kon [2] [M⁻¹ s⁻¹]
B1 | 59.6 | – | – | –
B2 | – | 51.6 | 0.0186 | 360000
